Measured values taken from patent US20130136743A1 (LABORATOIRE FRANCAIS DU FRACTIONNEMENT ET DES …, published 2013).

Experiments:
[1] = biological target: T1, AMHR-II/Fc fusion protein (human, UniProt Q16671 18-149, limits assumed); experiment: SPR, BIAcore X100; AMHR-II/Fc immobilised on CM5 chip, antibody injected; 25 C
T1 construct: also called AMHR-II recombinant receptor expressed in the form of fusion protein with a region Fc; recombinant target; not shown: Fc region
Method: The affinity of the antibodies for their antigen, AMHR-II, is determined by the SPR (Surface Plasmon Resonance) technique on BIACore X100 (BIACore, GE Healthcare). The AMHR-II recombinant receptor, expressed in the form of fusion protein with a region Fc, is immobilized by covalent coupling between its amine functions and the carboxyl groups of dextran activated in succinimide esters, present on the surface of the type CM5 sensor chip. The COOH groups of the sensor chip are activated for 7 minutes with EDC/NHS mixture (0.1 M of N-hydroxysuccinimide and 0.1 M of 3-(N,N-dimethylamino)propyl-N-ethylcarbodiimide) at a flow of 10 μl/min then the AMHR-II/Fc fusion protein, diluted to 5 μg/ml in 10 mM sodium acetate buffer, pH 4.0, is injected at […] on track 2 of the sensor chip so as to reach 300 RU. The ester groups that have not reacted with the amines of the fusion protein are deactivated by injection of a solution of ethanolamine-HCl 1M, pH 8.5 for 7 min at a flow of 10 μl:min. Track 1, serving as negative control, was activated and deactivated like track 2.
All the measurements are carried out at 25° C. The antibodies to be analysed are diluted in HBS-EP running buffer (BIACore, GE Healthcare) at concentrations from 6.25 to 3333 nM and injected on the sensor chip for 2 min at a flow of 30 μl/min. The dissociation step is monitored for 10 min and then the surface is regenerated by injection of 10 mM glycine buffer, pH 1.5 for 30 s at 10 μl/min.
The sensorgrams obtained are analysed using the 1:2 kinetic model of the BIAevaluation 3.1 software.

[2] = biological target: T2, Epitope peptide GGGGNLTQDRAQVEMQGSR; experiment: method not stated; Example 2, heading names cov434-AMHR-II cells and the epitope peptide
T2 peptide: GGGGNLTQDRAQVEMQGSR

AMHR-II human receptor = biological target: T3, AMHR-II human receptor (human, UniProt Q16671 18-573, limits assumed); experiment: method not stated; determined on the AMHR-II human receptor; determined on the AMHR-II human receptor (table footnote), apart from the tabulated 2.35 × 10^-7M
T3 sequence (looked up): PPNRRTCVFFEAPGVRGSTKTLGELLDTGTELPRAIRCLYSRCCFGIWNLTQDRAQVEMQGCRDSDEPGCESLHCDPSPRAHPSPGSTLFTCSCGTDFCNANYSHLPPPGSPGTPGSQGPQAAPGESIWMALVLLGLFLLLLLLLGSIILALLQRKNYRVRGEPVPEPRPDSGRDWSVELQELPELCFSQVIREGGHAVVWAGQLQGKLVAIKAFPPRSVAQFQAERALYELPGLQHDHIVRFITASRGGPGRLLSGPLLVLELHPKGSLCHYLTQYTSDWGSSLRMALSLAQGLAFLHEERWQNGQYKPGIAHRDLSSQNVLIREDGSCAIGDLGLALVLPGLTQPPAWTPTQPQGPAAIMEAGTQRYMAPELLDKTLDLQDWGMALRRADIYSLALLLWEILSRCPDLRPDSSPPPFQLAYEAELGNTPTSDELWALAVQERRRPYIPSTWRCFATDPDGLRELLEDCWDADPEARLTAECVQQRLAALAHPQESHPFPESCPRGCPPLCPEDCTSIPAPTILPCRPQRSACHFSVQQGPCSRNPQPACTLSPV

B1: chimeric 12G4 monoclonal antibody (antibody, V domains shown)
VH: QVQLQQSGPELVKPGASVRMSCKASGYTFTSYHIHWVKQRPGQGLEWIGWIYPGDDSTKYNEKFKGKTTLTADKSSSTAYMLLSSLTSEDSAIYFCTRGDRFAYWGQGTLVTVSA
VL: QIVLTQSPAIMSASLGEGITLTCSASSSVRYIHWYQQKSGTSPKLLIYSTSNLASGVPSRFSGSGSGTFHSLTISSVEAEDAADYYCLQWSSYPWTFGGGTKLEIKR
notes: Variable regions without leader joined to the human constant regions; also called 12G4-Chimeric; unmutated chimeric 12G4 antibody
Kd [1]: 212 nM
koff [1]: 0.00074 s⁻¹
kon [1]: 3500 M⁻¹ s⁻¹
Kd [2]: 235 nM
koff [2]: 0.00153 s⁻¹
kon [2]: 6490 M⁻¹ s⁻¹
Kd (AMHR-II human receptor): ~10 nM
